Experimental findings from patent US20210246189A1 are described below.

The experiment concerns the target transgenic TCR specific for A*02:01/pp65495-503, on transduced PBMCs. Put plainly: cell-based or functional assay.

The substance “A1/pp65(363-373) pMHC functionalized with MMAF (irrelevant toxin armed Streptamer) (from UniProt P61769 21-119; P06725 363-373) (peptide-MHC)” gave an Ag-specific CD8 T cell population after 5d culture with 0.25 ug pMHC of 60.7%.
“un-functionalized A2/pp65495-503 pMHC (Tub-tagged Streptamer) (from UniProt P61769 21-119; P06725 495-503) (peptide-MHC)” displayed an Ag-specific CD8 T cell population after 5d culture with 0.25 ug pMHC of 64.5% and an Ag-specific CD8 T cell population after 5d culture with 0.5 ug pMHC of 20 to 43.7%.
